Reference: the nanobody polyreactivity screen of Harvey et al. (2022)

Assay: yeast display, Sf9 membrane polyspecificity reagent, FACS + sequencing; frameworks hold sequencing errors
Summary of the method: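 Nanobodies came from a synthetic yeast display library in Saccharomyces cerevisiae BJ5465, induced with galactose for 36–48 hours and stained for 1 hour at 4 °C with 10% biotinylated, detergent-solubilized Sf9 membrane reagent. Cells were enriched on streptavidin microbeads and then FACS-sorted, with low and high (top ~1%) gates set on anti-HA fluorescence for expression and streptavidin fluorescence for reagent binding. Each polyreactivity label reflects the gate a clone came from. Genes were amplified by colony PCR, sequenced by MiSeq 2 × 250 and filtered by CDR length.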

QVQLVESGGGLVQAGGSLRLSCAASGFIFTHYAMGWYRQAPGKERELVAAISRRGGSTYYADSVKGRFTISRDNAKNTVYLQMNSLKPEDTAVYYCAADNYDAWYWDYYWGQGTQVTVSS
polyreactivity (PSR sort gate): high polyreactivity

QVQLVESGGGLVQAGGSLRLSCAASGFTFYRYAMGWYRQAPGKERELVASIRWGGGSTYYADSVKGRFTISRDNAKNTFYLEMNSLKPEDTAVYYCAAYFGYTVGRYNYWGQGTQVTVSS
polyreactivity (PSR sort gate): high polyreactivity

QVQLVESGGGLVQEGGSLRLSCAASESNFPRNAMGLYRKEPGKEREIVAAISSAGSTYYADSVKWRFTISRDNAKNTVYLQMNSLKQEDTAVYYCAARLYWPLIVVDLYGYDYWGQGNQVTVSS
polyreactivity (PSR sort gate): low polyreactivity

QVHLVESGGGLVQAGGSLRLSCAASGRTFTGYAMGWYRQAPGKEREFVAAISSGGVRTYYADSVKGRFTISRDNAKNTVYLQMNSLKPEDTAVYYCNARQVYYRGTFRYSYDYWGQGTQVTVSS
polyreactivity (PSR sort gate): high polyreactivity

QDQLVESGGGLVQAGGSLRLSCAPSGSIFYRNAMGWYRQAPGKERELVAAIRYSGDNTYYADSVKGRFTISRDNSKNTVYLQMNSLKPEDTAVYYCAADFPDYEYWGQGTQVTVSS
polyreactivity (PSR sort gate): high polyreactivity

QVQLVESGGGLVQAGRCLRLSCAASGITFVPNAMGWSRQAPGKERELVAAISSGGTYADSVKGRFTISRDNAKNTVYLQMNSLKPEDTALYYCNADTDYIRWIYGYWGQVTQVTVSS
polyreactivity (PSR sort gate): low polyreactivity

QVQIVESGGGLVQAGGSLRLTCAASGFTFYKKAMGWYIQAPGKERELVAAITSSGGSTYYADSVKGRFTISRDNAKNTVYLQMNSLKPEDTAVYYCAAYPQAYIADYDYWGQGTQVTVSS
polyreactivity (PSR sort gate): low polyreactivity

QVQLVESGGGLVQAGGSLRLSCAASGSIFPLYAMGWYRQAPGKERELVAAITSNGGRTYYADSVKGRFTISRDNAKNTVYLQMNSLKPEDTAVYYCNKYLLDYRRGRSDYWGQGTQVTVSS
polyreactivity (PSR sort gate): low polyreactivity

QVQLVESGGGLVQAGGSLRLSCAASGSIFWFNAMGWYRQAPGNERELVATIRYSGGSTYYADSVKGRFTISRDNAKNTVYLQMNSLKPEDTAVYYCAAVSRYSRSGYEYWGQGTQVTVSS
polyreactivity (PSR sort gate): high polyreactivity

QLQLVESGGGLVQEGGSLRISCDASGSTFDDNAMACYRQAPGKERELVAGIDVSGGSTYYADSVKGRFTISRDNAKKTVYLQMTSLTPEDTAVYFCAKGRPGHRTSSVNFNYWGQGTQVTVSS
polyreactivity (PSR sort gate): low polyreactivity

QVQLVESGGGLVQAGGSLRLSCAASGSIFRFNAMGWYRQAPGKERELVATISRSGGSTYYADSVKGRFTISRDNAKNTVYLQMNSLKPEDTAVYYCAADAYPTWPEYDGLYFKYDYWGQGTQVTVSS
polyreactivity (PSR sort gate): high polyreactivity

QVQLVESGGGLVQAGGSLRLSCAASGRIFLWYAMGWYRQAPGKERELVAAISRTGGSTYYADSVKGRFTISRDNAKNTVYLQMNSLKPEDTAVYFCAAYHSYKTSWPQSGYWGQGTQVTVSS
polyreactivity (PSR sort gate): high polyreactivity

QVQLVESRGGLVQAGGSLRLSCSASGFIRTYAMGWYRQAPAKERELVAAITSSGGRTNYADSVKGRFTISRDNAKNTVYLQMNSLKPEDTAVYYCAAGLGRYLRYNYWGQGTQVTVSS
polyreactivity (PSR sort gate): high polyreactivity

QVQLVESGGGLVQAGGSLRLSCAASGFTFRFNAMGWYRHAPGKERELVAGITSGGTTNYAYSVKGRFTISRDNAKNTVYLHMNSLKPEDTAVYYCNAAWYRWKQRYDYWGQGTLVTVSS
polyreactivity (PSR sort gate): low polyreactivity

QVQLVESGGGLVQAGGSLRLSCAASGSTFYDYAMGWYRQAPGKERELVASIDSGDSTNYADSVKGRFTISRDNAKNTVYLQMNSLKPEDTAVYYCAARVYSVADYYYWGQGTQVTVSS
polyreactivity (PSR sort gate): low polyreactivity

QVQLVESGGGLVQAGGSLRLSCAASGFIFRYYAMGWYRQAPGKERELVAAITRGGSTYYADSVKGRFTISRDNAKNTVYLQMNSLKPEDTAVYYCAARLYTQYYYWGQGTQVTVSS
polyreactivity (PSR sort gate): high polyreactivity

QVQLVESGGGLVQAGVSLRLSCAASGSILTINAMGLYRQAPGKERELVPAITSGGGSTYYADSVKGRFTISRDNAKNTVYLQMNSLKPEDTAVYYCNKVFVLPYKFVAWFDYWGQGTQVTVSS
polyreactivity (PSR sort gate): low polyreactivity

QVQLVESGGGLVQAGGSLRLSCAASGSTSYVYAMGWYRQAPGKERELVAAISGSGGRTYYADSVKGRFTISRDNAKNTVYLQMNSLKPEDTAVYYCNALPRPSYPFDYWGQGTQVTVSS
polyreactivity (PSR sort gate): high polyreactivity

QVQLVESGGGLFQAGGSLRLSCAASGSISIKNAMGWYRQAPGKERELVATITYNGGSTYYADSVKGRFTISRDNAKNTVYLQMNSLKPEDTAVYYCARDAFEPYDVGEYYYWGQGTQVTVSS
polyreactivity (PSR sort gate): low polyreactivity

QVQLVESGGGLVQAGGSLRLSCAASGSIFDVYAMGWYRQAPGKERELVAAIDSGGSSTYYADSVKGRFTISRDNAKNTVYLQMNSLKPEDTAVYYCAARPYYSWNYDYWGQGTQVTVSS
polyreactivity (PSR sort gate): low polyreactivity

QVQLVESGGGLVQAGGSLRLSCAASGRIFNGYAMGWYRQAPGKERELVAAINSSGGSTYYADSVKGRFTISRDNAKNTVFLQMNSLKPEDTAVYYCARVSYHYRTYDYWGQGTQVTVSS
polyreactivity (PSR sort gate): high polyreactivity

QVQLVESGGALVQAGGSLRLSSAASVSIFTINAMGWYRQAPGKERELVAAISWSGAHTYYADSVKGRFTISRDNAKNTVYVQMNSLKPEDTAVYYCATGYNYLDRNTGYVHRFDYWGQGTQVTVSS
polyreactivity (PSR sort gate): low polyreactivity

QVQLVESGGGLVQAGGSLRLSCAASGFTFSLYAMGWYRQAPGKERELVASIDSDGVSTYYADSVKGRFTISRDNAKNTVYLQMNSLKPEDTAVYYCAADFWWGYISGPVRGRGYYWGQGTQVTVSS
polyreactivity (PSR sort gate): low polyreactivity

QVQLVESVGGLVQAGGSLRLSCAASGSTIQGNSMGWYRQAHGKERELVAAISRSGGSTYADSVKGRFTISRDNAKNTVYLEMHSLKPEDTAVFYCAAYSGVGYLWFDYWGQGTQVTVSS
polyreactivity (PSR sort gate): low polyreactivity

QVQLVESGGGLVQAGGSLRLSCAASGRTFQTNVMGWYRQAPGKERELVAAISKTGGRTYYADSVKGRFTISRDNAKNTVYLQMNSLKPEDTAVYYCAADSSGYEDYDYWGQGTQVTVSS
polyreactivity (PSR sort gate): high polyreactivity

QVQLVESGGGLVQAGGTLRLSCAASGYTFVVYAMGWYRQAPGKERELVASISRSGGSTYYADSVKGRFTISRDNAKNTVYLQMNSLKPEDTAVYYCAADVWRVQHRGYNYWGQGTQVTVSS
polyreactivity (PSR sort gate): high polyreactivity

QVHLVESGGGLVQAGGSLRLSCSASGSTFYAYAMGWYRQARGKERELVARIRWRGGRSYYADSVKGRFTISRDNAKNTVYLQMHSLKPEDTAVYYCAARLYGRYDSQDNYWGQGTQVTVSS
polyreactivity (PSR sort gate): high polyreactivity

QVQLVESGGGLVQAGGSLRLSCAASGSTFGYYAMRWYRQAPGKERELVAAIRSSGGGTYYADSVKGRFTISRDNAKNTVYLQMNSLKPEDTAVYYCATDAPILVNAEYDEWLEYDYWGQGTQVTVSS
polyreactivity (PSR sort gate): low polyreactivity

QVQLVESGGGLVQAGGSLRLSCAASGRIFTIYAMGWYRQAPGKERELVATISRRGGSTYYADSVKGRFTISRDNSKNTVYLQMNSLKPEDTAVYYCAAESVITWWAYDYWGQGTQVTVSS
polyreactivity (PSR sort gate): high polyreactivity

QVQLVESGGGLVQAGGSLRLSSAASGRIFKGNAMGWYRQAPGKERELVAAISKRGGSTHYADSVKGRFTISRDNSKNTVYLQMNSLKPEDTAVYYCATDSYYVGAVHYYYWGQGTQVTVSS
polyreactivity (PSR sort gate): high polyreactivity

QVQLVESGGGLVQAGGSLRLSCAASGSNFDAYAIGWYRQAPGKERELVASISIGGSTNYADSVKGRFTISRDNAKNTVYLQMNSLKPEDSAVYYCAAYVYYTYPSGTVYSVSYIYDYWGQGTQVTVSS
polyreactivity (PSR sort gate): low polyreactivity

QVQLVESGGGLVQAGGSIRLSCAASGSTFANYAMGWYRQAPGKERELVAAISWSGSYTYYADSVKGSFTISRDNAKNTVYLQMNSLKPEDTAVYYCAADYDTPTWEYYYWGQGTQVTVSS
polyreactivity (PSR sort gate): low polyreactivity

LVHLQESGGGLVQAGGSLRLSCAASGTISPAGYMGWYRPAPGKERELVASINVGGSTNYADSVKGRFTISRDNAKNTVYLQLNCLKPEVNAVYYCAVWGRYRLQLSYWGQGTQVTVSS
polyreactivity (PSR sort gate): low polyreactivity

QVQLVESGGGLVQAGGSLRLSCAASGSNFVPYTMGWYRQAPGKERELVASISYSVGTTYYADSVKGRFTISRDNAKNTVYLQMNSLKPEDTAVYYCAADWDESYSYRRYRHYDYWGQGTQVTVSS
polyreactivity (PSR sort gate): low polyreactivity

QVQLVESGGGLVQAGGSLRLSCAASGRIISHYAMGWYRQAPGKDRELVAAISRSGVSTYYADSVKGRFTISRDNAKNTVYLQMNSLKPEDTAVYYCNRRYDRGPYDYWGQGTQVTVSS
polyreactivity (PSR sort gate): low polyreactivity

QVQLVESGGGLVQAGGSLRLSCAASGRTFNPNAMGWYRQAPGKERELVATISWSSDSTYYADSVKGRFTISRDNAKNTVYLQMNSLKPEDTAVYYCNAQLSYHWYSPGYDYWGQGTQVTVSS
polyreactivity (PSR sort gate): low polyreactivity

QVQHVESGGGLVQAGGSLRLSCAASGFIFTYYGMGWYRQAPGKERELVAAITWSGASTYYADSVKGRFTISRDNAKNTVYLQMNSLKPEDSAVYYCNAVWDSGIVQSDETVYKYDYWGQGTQVTVSS
polyreactivity (PSR sort gate): low polyreactivity

QVQLVESGGGLVQAGGSLRLTCAASGYTLGYNAMGWYRKAPGKEMELVAAITIDGSTTYADSVKGRFTISRDNAKNTVYLLMNSLKPEDTAVYYCNAEGFTSDPYDSDYWGKGTQVTVSS
polyreactivity (PSR sort gate): low polyreactivity

QVQLVESGGGLVQAGGSLRLSCAASGITFYEYTMGWYRQAPGKETELVAVIRKTGGSTYYADSVKGRFTISRDNAKNTVYLQMNSLKPEDTAVYYCNARYGGSGRVPRSYDYWGQGTQVTVSS
polyreactivity (PSR sort gate): high polyreactivity

QVQLVESGGGLVQAGGSLRLSCAASGRTLRKYAMGWYRQAPGKERELVAAITWTGGTTYYADSVKWRFTISRDNAKNTVYLQMNSLKPEDTAVYYCATVRSYGYGYDFWGQGTQVTVSS
polyreactivity (PSR sort gate): high polyreactivity

QVQLVESGGGLVQAGGSLRLSCAASGSTFSPNAMGWYRQAPGKERELVAAITYRGANTYYADSVKGRFTISRDNAKNTVYLQMNSLKPEDTAVYYCAAEYAYHHVGFGYWGQGTLVTVSS
polyreactivity (PSR sort gate): low polyreactivity

QVQLVESGGGLVQAGGSLRLSCAASGSIFIVNAMGWYRPAPGKERELVAAISRSGGRTYYADSVKVRFTISRDNAKNTVYLQMNSLKPEDTAVYYCNARSRARKVAYDYWGQGTQVTVSS
polyreactivity (PSR sort gate): high polyreactivity

QVQLVESGGGLVQAGGSLRLSCAASGSTFRRNAMGWYRQAPGKERELVAAISRGGNTKYADSVKGGFTISRDNAKNTVYLQKNSLKPEDTAVYYCATYYFSSSHLYGYWGQGTQVTVSS
polyreactivity (PSR sort gate): high polyreactivity
